Experiments:
ZapD (purified), P36680 = target: T1, ZapD (purified), P36680; assay: co-sedimentation assay, SDS-PAGE quantification; settings: chain shown with the change, 50 mM K-MOPS pH 6.5, 50 mM KCl, 2.5 mM MgCl2, 1 mM GTP, 3 µM BSA, read off a plot
T1 chain: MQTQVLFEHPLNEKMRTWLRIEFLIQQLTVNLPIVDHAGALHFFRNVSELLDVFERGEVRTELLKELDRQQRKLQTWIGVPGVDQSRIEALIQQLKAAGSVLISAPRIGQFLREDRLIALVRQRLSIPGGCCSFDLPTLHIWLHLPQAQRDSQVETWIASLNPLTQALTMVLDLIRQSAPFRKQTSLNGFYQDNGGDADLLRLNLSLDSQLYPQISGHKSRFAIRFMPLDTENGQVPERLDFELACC

[1] = target: T2, FtsZ(NRNKRG) (purified), P0A9A6; assay: sedimentation (co-pelleting) assay, SDS-PAGE quantification; settings: chain shown with the change, 50 mM K-MOPS pH 6.5, 50 mM KCl, 2.5 mM MgCl2, 1 mM GTP, 3 µM BSA, read off a plot
T2 chain: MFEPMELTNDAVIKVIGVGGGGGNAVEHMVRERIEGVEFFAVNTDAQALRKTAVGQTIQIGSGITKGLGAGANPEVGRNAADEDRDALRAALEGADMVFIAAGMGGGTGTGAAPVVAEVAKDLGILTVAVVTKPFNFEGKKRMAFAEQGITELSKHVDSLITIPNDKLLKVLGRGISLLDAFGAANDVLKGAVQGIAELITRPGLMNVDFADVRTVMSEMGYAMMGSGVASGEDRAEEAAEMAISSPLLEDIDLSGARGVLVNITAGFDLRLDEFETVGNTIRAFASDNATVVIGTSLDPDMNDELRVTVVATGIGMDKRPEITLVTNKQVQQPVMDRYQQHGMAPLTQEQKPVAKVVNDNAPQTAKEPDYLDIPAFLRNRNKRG

response (% ZapD in pellet) (ZapD (purified), P36680; 5 µM FtsZ with ZapD at 1:0.2, parent: est. 62): 17
response (% ZapD in pellet) (ZapD (purified), P36680; 5 µM FtsZ with ZapD at 1:1, parent: est. 55): 23
response (% FtsZ in pellet) ([1]; 5 µM FtsZ with ZapD at 1:0.2, parent: est. 44): 34
response (% FtsZ in pellet) ([1]; 5 µM FtsZ with ZapD at 1:1, parent: est. 73): 36
response (% FtsZ in pellet) ([1]; 5 µM FtsZ, no ZapD, parent: est. 26): 31
B1: FtsZ (purified, WT), P0A9A6 CTV KQAD (380-383) replaced by NRNKRG (protein)
chain: MFEPMELTNDAVIKVIGVGGGGGNAVEHMVRERIEGVEFFAVNTDAQALRKTAVGQTIQIGSGITKGLGAGANPEVGRNAADEDRDALRAALEGADMVFIAAGMGGGTGTGAAPVVAEVAKDLGILTVAVVTKPFNFEGKKRMAFAEQGITELSKHVDSLITIPNDKLLKVLGRGISLLDAFGAANDVLKGAVQGIAELITRPGLMNVDFADVRTVMSEMGYAMMGSGVASGEDRAEEAAEMAISSPLLEDIDLSGARGVLVNITAGFDLRLDEFETVGNTIRAFASDNATVVIGTSLDPDMNDELRVTVVATGIGMDKRPEITLVTNKQVQQPVMDRYQQHGMAPLTQEQKPVAKVVNDNAPQTAKEPDYLDIPAFLRNRNKRG
